Laboratory results from patent US20080187980A1, “Method for identifying potential agonists or antagonists using the three-dimensional structure of caspase-7” (Vertex Pharmaceuticals Incorporated, priority 1999, published 2008).

How the values were obtained:
caspase-1 = molecular target: T1, caspase-1 (Homo sapiens, UniProt P29466); conditions: cited from earlier work; for Ki: reported, Garcia-Calvo et al. 1998
T1 sequence (P29466 120-297 limits assumed): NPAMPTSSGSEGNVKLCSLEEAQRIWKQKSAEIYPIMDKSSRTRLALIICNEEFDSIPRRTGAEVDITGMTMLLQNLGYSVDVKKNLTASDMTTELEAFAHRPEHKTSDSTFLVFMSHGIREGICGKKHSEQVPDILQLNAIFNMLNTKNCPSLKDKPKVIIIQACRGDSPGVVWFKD
T1 sequence (P29466 317-404 limits assumed): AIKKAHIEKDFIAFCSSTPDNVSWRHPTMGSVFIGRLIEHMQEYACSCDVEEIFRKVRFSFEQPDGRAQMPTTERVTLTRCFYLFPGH

caspase-7 = molecular target: T2, caspase-7 (Homo sapiens, UniProt P55210); conditions: reported, Garcia-Calvo et al. 1998; cited from earlier work
T2 sequence (P55210 24-198 limits assumed): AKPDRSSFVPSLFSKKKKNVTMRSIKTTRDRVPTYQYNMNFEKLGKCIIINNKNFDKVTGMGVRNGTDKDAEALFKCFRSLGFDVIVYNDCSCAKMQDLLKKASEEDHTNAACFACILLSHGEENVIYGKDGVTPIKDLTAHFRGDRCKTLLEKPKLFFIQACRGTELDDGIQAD
T2 sequence (P55210 207-303 limits assumed): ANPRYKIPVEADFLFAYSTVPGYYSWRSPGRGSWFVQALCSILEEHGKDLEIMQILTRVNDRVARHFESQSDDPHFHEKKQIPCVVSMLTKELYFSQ

caspase-8 = caspase-8 (Homo sapiens, UniProt Q14790); conditions: reported, Garcia-Calvo et al. 1998; cited from earlier work
Chain of caspase-8 (Q14790 217-374 limits assumed, one chain of several): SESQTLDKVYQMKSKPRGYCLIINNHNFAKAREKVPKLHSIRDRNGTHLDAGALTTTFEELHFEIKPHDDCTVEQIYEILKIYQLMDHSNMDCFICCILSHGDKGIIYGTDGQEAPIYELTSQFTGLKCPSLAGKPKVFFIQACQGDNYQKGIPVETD

Caspase-4 = molecular target: T3, Caspase-4 (Homo sapiens, UniProt P49662); conditions: Garcia-Calvo et al. 1998; cited from earlier work
T3 sequence (P49662 81-270 limits assumed): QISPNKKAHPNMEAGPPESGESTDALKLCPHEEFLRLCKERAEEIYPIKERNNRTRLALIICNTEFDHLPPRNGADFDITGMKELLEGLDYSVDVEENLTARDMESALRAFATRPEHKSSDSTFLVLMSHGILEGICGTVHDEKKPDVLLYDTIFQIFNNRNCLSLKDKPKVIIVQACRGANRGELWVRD
T3 sequence (P49662 290-377 limits assumed): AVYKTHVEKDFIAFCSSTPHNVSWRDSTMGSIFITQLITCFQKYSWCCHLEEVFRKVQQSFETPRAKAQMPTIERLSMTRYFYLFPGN

Caspase-5 = molecular target: T4, Caspase-5 (Homo sapiens, UniProt P51878); conditions: Garcia-Calvo et al. 1998; cited from earlier work
T4 sequence (P51878 137-327 limits assumed): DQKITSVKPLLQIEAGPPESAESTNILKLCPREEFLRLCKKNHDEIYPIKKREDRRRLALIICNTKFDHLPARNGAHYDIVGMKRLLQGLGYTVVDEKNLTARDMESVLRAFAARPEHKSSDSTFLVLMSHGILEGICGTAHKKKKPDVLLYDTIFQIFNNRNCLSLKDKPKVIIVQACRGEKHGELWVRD
T4 sequence (P51878 347-434 limits assumed): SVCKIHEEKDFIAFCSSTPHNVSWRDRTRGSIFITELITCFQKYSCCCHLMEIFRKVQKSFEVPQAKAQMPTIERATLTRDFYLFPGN

[1] = tested on: all other group II and group III caspases except caspase-8; conditions: group II and group III caspases other than caspase-8; cited from earlier work
group III caspases = conditions: cited from earlier work
[2] = molecular target: T5, Ac-DEVD-aminoemethylcoumarin
T5 chain: DEVD

Molecule | Ki (caspase-1) [nM] | Ki (caspase-8) [nM] | kcat/Km [2] | further results
acetyl-Asp-Glu-Val-Asp-CHO [Ac-DEVD-CHO] | 18 | 0.92 |  | Ki (caspase-7): 1.6 nM
AcWEHD-CHO (Ac-WEHD-aldehyde; SMILES CC(=O)N[C@@H](Cc1c[nH]c2ccccc12)C(=O)N[C@@H](CCC(=O)O)C(=O)N[C@@H](Cc1c[nH]cn1)C(=O)N[C@H](C=O)CC(=O)O) | 0.056 | 21 |  | Ki (Caspase-4): 97 nM; Ki (Caspase-5): 43 nM; inhibition of all other group II and group III caspases except caspase-8 (in words) [1]: poor inhibitor
Ac-YVAD-CHO: tetrapeptide aldehyde inhibitor, SEQ ID NO: 4 |  |  |  | inhibitory potency against group III caspases (in words) (group III caspases): modest inhibitory potency; inhibitory potency against caspase-1 (in words) (caspase-1): good inhibitory potency
Wild-type caspase-8 (protein) chain 1: RGYCLIINNHNFAKAREKVPKLHSIRDRNGTHLDAGALTTTFEELHFEIKPHDDCTVEQIYEILKIYQLMDHSNMDCFICCILSHGDKGIIYGTDGQEAPIYELTSQFTGLKCPSLAGKPKVFFIQACQGDNYQKGIPVETD chain 2: LSSPQTRYIPDEADFLLGMATVNNCVSYRNPAEGTWYIQSLCQSLRERCPRGDDILTILTEVNYEVSNKDDKKNMGKQMPQPTFTLRKKLVFPSD |  |  | both enzymes appear to be indistinguishable, yielding a kcat/Km of 1×10^5 Ml-s^1-^1 | 
Triple mutant caspase-8 (residues 233-479; Lys to Arg at residues 246, 250 and 253; Pro370 and Val371 removed) (protein) RGYCLIINNHNFARARERVPRLHSIRDRNGTHLDAGALTTTFEELHFEIKPHDDCTVEQIYEILKIYQLMDHSNMDCFICCILSHGDKGIIYGTDGQEAPIYELTSQFTGLKCPSLAGKPKVFFIQACQGDNYQKGIPVETDSEEQPYLEMDLSSPQTRYIPDEADFLLGMATVNNCVSYRNPAEGTWYIQSLCQSLRERCPRGDDILTILTEVNYEVSNKDDKKNMGKQMPQPTFTLRKKLVFPSD |  |  | both enzymes appear to be indistinguishable, yielding a kcat/Km of 1×10^5 Ml-s^1-^1 | 
